Three molecules from patent US20110262949A1 can be followed below.

The target of data set [1] is T1, wt β2 (E. coli class I ribonucleotide reductase subunit β2), P69924.
T1 chain: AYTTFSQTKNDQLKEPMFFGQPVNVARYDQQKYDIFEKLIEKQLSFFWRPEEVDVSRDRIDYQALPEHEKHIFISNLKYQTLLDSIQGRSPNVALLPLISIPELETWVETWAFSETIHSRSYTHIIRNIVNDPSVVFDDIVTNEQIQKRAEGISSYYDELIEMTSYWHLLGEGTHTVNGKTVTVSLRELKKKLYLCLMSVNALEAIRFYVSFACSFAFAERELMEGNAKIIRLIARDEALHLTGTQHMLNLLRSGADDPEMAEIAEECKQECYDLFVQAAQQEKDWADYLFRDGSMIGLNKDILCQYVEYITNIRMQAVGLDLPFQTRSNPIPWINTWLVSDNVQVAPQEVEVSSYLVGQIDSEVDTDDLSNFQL

The target in data set [2] is wt β2 (E. coli class I ribonucleotide reductase subunit β2) (E. coli) (UniProt P69924). The data set is described as follows: cell-based or functional assay.

B1: Y730NH2Y-α2 (E. coli class I ribonucleotide reductase subunit α2 with 3-aminotyrosine at residue 730) (protein)
chain: MNQNLLVTKRDGSTERINLDKIHRVLDWAAEGLHNVSISQVELRSHIQFYDGIKTSDIHETIIKAAADLISRDAPDYQYLAARLAIFHLRKKAYGQFEPPALYDHVVKMVEMGKYDNHLLEDYTEEEFKQMDTFIDHDRDMTFSYAAVKQLEGKYLVQNRVTGEIYESAQFLYILVAACLFSNYPRETRLQYVKRFYDAVSTFKISLPTPIMSGVRTPTRQFSSCVLIECGDSLDSINATSSAIVKYVSQRAGIGINAGRIRALGSPIRGGEAFHTGCIPFYKHFQTAVKSCSQGGVRGGAATLFYPMWHLEVESLLVLKNNRGVEGNRVRHMDYGVQINKLMYTRLLKGEDITLFSPSDVPGLYDAFFADQEEFERLYTKYEKDDSIRKQRVKAVELFSLMMQERASTGRIYIQNVDHCNTHSPFDPAIAPVRQSNLCLEIALPTKPLNDVNDENGEIALCTLSAFNLGAINNLDELEELAILAVRALDALLDYQDYPIPAAKRGAMGRRTLGIGVINFAYYLAKHGKRYSDGSANNLTHKTFEAIQYYLLKASNELAKEQGACPWFNETTYAKGILPIDTYKKDLDTIANEPLHYDWEALRESIKTHGLRNSTLSALMPSETSSQISNATNGIEPPRGYVSIKASKDGILRQVVPDYEHLHDAYELLWEMPGNDGYLQLVGIMQKFIDQSISANTNYDPSRFPSGKVPMQQLLKDLLTAYKFGVKTLYYQNTRDGAEDAQDDLVPSIQDDGCESGACKI
In the case of B1, in data set [1], the “1st Phase kobs (SF UV-vis, NH2Y• formation / Y122• loss, with CDP/ATP)” value was 12.8 ± 0.8, 20 ± 1; the “rate constant of NH2Y. formation at 325 nm, fast phase” value stood at 13.6 ± 0.1 s⁻¹; the “rate constant of NH2Y. formation at 325 nm, slow phase” value is 2.5 ± 0.1 s⁻¹; the “rate constant of Y122. loss at 410 nm, fast phase” value came to 12.0 ± 0.1 s⁻¹. Further, in data set [1], the “rate constant of Y122. loss at 410 nm, slow phase” value turned out to be 2.4 ± 0.1 s⁻¹. For the same molecule, the “2nd Phase kobs (SF UV-vis, NH2Y• formation / Y122• loss, with CDP/ATP)” value in data set [1] (in 1/s) is 2.5 ± 0.1, 19 ± 1.

B2: Y731NH2Y-α2 (E. coli class I ribonucleotide reductase subunit α2 with 3-aminotyrosine at residue 731) (enzyme, UniProt P00452 1-761, looked up)
chain: B1 chain
modifications: 3-aminotyrosine (NH2Y) at position 731 in place of Tyr (E. coli RNR numbering)
In data set [2], B2 yielded a 1st Phase Ampl (% of total initial Y122• trapped) of 24%; a 2nd Phase Ampl (% of total initial Y122• trapped) of 11%; an EPR spin quantitation at 10 s with CDP/ATP: share of remaining spin in NH2Y731. of 45%; a [NH2Y•] at 20 s in the reaction with β2 and N3ADP/dGTP (EPR) of 7.1 µM. This molecule also came in with a total initial Y122. consumed at 2 s in data set [2] of 35%.

B3: Y730NH2Y-α2 (E. coli class I ribonucleotide reductase subunit α2 with 3-aminotyrosine at residue 730) (enzyme, UniProt P00452 1-761, looked up)
chain: B1 chain
modifications: 3-aminotyrosine (NH2Y) at position 730 in place of Tyr (E. coli RNR numbering)
In data set [2], B3 showed a 1st Phase Ampl (% of total initial Y122• trapped) of 20%; a 2nd Phase Ampl (% of total initial Y122• trapped) of 19%; an EPR spin quantitation at 10 s with CDP/ATP: share of remaining spin in the new signal (NH2Y730.) of 53%; a [NH2Y•] at 20 s in the reaction with β2 and N3ADP/dGTP (EPR) of 7.6 µM. Besides, the total initial Y122. consumed at 2 s in data set [2] is 39%.
